Experimental data reported in patent US20100221248A1.

Assays:
[1] = biological target: human FcγRIIIA, 158F 176V allele, soluble (human) (UniProt P08637); assay: SPR (Biacore T100), steady state, MBP-Fn3 immobilized, soluble FcR injected
[2] = biological target: human FcγRIIIA, 158F 176F allele, soluble (human) (UniProt P08637); assay: as above

B1: MBP-IIIA537 (designed binder, not shown: large carriers)
chain: LGENLYFQSVSDVPRDLEVVVATPTSLLINWDLPFSDSYRITYGETGGNSPVQGFTVPGTESIATISGLKPGVDYTITVYAVASSGSNSYPISINYRTEIDKPSQ
[1]
  Kd: 3.9 µM
[2]
  Kd: 4.9 µM
